Columns and labels:
ITPR1 = ITPR1 (Homo sapiens, UniProt Q14643); assay: NGF-induced intracellular calcium release / ITPR1 activation in NBL cells; type: cell-based; parameters: endogenous in cells
[1] = system: intracellular calcium release in NBL cells; assay: ATP-stimulated calcium release in NBL cells (Fura2 imaging); type: cell-based, human; conditions: 1 μM ATP, vs empty vector
Description: Pharmacodynamics—Bioassay of Calcium Release: Fifteen mm glass coverslips (cat #72228 Electron Microscopy Sciences, Hatfield, PA) were coated with poly-D-Lysine (Sigma) followed by Laminin and 1×10^5 cells were seeded on each coverslip. Twenty-four hrs later, cells were transfected with AAV2-ITR, AAV2-V5-Car10, or AAV2-V5-CA10 vectors as previously described. In embodiments wherein AAV2 is not employed, other expression vectors (including viral vectors) are used. Fura-2AM (cat #F1221 ThermoFisher scientific, Waltham, MA) was dissolved in DMSO (50 μg in 50 μl) and 1% pluronic acid-127 (cat #P2443 Sigma, St Louis, MO) as the stock solution. Forty eight hrs after seeding, cells were loaded with 2 μM Fura-2AM dye for 45 min at room temperature in the dark in a standard Ca+2 buffer solution containing: 125 mM NaCl, 2 mM MgCl, 4.5 mM KCl, 10 glucose, 20 mM HEPES, 2 mM CaCl2, pH 7.4.25. Following dye loading, coverslips were washed with Ca^+2 buffer solution. […] Regions of interest over the field of view were selected and the mean pixels intensity at each frame was measured. Data was plotted as ratio fluorescence intensity versus time and subsequently converted to a relative scale. […]

Sequence of ITPR1 (Q14643 whole entry): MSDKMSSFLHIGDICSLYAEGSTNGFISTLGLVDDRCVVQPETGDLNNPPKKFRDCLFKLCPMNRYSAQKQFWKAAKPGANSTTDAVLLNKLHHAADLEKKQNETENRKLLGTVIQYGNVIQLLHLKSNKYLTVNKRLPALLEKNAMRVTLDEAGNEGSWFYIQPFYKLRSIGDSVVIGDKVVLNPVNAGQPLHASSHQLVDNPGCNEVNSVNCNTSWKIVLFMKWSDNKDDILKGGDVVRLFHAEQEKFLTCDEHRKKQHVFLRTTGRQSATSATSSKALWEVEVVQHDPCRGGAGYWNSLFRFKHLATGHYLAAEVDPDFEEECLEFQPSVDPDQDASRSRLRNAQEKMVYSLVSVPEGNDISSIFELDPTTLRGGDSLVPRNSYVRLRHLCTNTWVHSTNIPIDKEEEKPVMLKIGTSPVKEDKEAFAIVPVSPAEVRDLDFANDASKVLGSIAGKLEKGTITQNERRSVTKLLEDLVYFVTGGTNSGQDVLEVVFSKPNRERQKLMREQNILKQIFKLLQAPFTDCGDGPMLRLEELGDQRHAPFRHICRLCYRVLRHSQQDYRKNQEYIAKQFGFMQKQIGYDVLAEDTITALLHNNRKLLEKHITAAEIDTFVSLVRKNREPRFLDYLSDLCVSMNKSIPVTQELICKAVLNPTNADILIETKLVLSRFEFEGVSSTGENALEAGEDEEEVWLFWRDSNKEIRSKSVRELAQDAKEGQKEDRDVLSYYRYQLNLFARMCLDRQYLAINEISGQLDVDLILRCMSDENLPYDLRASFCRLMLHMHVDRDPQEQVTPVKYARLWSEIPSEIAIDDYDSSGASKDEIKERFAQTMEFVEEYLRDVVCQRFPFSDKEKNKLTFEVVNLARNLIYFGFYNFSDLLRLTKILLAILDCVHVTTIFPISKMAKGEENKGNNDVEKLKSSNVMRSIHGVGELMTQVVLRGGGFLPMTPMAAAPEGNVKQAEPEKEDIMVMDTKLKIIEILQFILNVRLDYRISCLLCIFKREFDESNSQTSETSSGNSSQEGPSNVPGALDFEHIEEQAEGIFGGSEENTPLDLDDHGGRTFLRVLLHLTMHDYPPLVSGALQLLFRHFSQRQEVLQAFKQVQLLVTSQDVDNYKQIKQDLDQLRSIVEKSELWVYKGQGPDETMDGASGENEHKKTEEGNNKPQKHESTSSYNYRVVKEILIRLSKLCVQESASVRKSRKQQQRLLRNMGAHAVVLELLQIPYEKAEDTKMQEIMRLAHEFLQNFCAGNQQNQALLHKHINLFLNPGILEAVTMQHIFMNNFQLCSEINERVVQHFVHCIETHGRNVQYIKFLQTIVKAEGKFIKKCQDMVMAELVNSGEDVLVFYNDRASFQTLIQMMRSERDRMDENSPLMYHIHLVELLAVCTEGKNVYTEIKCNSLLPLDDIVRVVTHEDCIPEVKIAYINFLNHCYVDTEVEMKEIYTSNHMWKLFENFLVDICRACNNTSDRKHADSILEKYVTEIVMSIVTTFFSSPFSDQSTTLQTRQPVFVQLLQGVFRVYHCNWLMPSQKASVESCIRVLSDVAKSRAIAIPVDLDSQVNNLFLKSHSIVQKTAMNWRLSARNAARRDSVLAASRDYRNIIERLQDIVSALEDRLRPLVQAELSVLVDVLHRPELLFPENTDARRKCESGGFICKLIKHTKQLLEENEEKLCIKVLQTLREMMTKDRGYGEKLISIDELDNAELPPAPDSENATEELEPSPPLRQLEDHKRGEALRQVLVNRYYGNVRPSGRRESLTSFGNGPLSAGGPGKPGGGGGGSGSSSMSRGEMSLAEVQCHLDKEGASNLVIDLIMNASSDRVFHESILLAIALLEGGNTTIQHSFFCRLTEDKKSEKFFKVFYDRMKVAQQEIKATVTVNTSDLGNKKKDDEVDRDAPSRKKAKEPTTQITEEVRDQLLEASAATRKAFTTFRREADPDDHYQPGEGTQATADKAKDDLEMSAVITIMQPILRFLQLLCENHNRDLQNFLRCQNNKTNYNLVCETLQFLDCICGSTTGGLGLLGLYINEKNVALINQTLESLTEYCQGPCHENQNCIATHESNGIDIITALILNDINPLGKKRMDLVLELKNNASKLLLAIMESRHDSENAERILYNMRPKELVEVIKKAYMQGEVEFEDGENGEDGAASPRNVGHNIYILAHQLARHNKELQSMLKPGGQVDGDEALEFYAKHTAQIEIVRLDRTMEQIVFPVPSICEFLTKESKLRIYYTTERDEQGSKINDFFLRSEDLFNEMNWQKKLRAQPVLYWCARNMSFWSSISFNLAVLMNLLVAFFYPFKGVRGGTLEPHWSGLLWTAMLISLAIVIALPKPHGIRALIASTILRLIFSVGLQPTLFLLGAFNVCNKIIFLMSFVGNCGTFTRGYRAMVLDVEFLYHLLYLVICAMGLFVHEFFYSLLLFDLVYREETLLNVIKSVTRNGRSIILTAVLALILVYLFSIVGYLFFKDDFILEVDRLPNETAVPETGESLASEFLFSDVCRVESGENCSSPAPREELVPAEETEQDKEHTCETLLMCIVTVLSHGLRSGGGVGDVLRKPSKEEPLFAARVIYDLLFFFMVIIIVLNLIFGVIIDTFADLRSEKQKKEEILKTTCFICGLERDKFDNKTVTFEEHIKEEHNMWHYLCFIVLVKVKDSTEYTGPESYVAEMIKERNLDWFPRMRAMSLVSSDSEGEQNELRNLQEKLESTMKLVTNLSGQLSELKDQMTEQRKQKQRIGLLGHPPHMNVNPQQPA

B1: CA8-201: wildtype full length CA8 transcript/peptide (protein, UniProt P35219 1-290, looked up)
chain: MADLSFIEDTVAFPEKEEDEEEEEEGVEWGYEEGVEWGLVFPDANGEYQSPINLNSREARYDPSLLDVRLSPNYVVCRDCEVTNDGHTIQVILKSKSVLSGGPLPQGHEFELYEVRFHWGRENQRGSEHTVNFKAFPMELHLIHWNSTLFGSIDEAVGKPHGIAIIALFVQIGKEHVGLKAVTEILQDIQYKGKSKTIPCFNPNTLLPDPLLRDYWVYEGSLTIPPCSEGVTWILFRYPLTISQLQIEEFRRLRTHVKGAELVEGCDGILGDNFRPTQPLSDRVIRAAFQ
modifications: full-length V5 tag
notes: wildtype full length CA8 transcript/peptide
- NGF-induced ITPR1 activation (pITPR1) (ITPR1): inhibits NGF-induced ITPR1 activation (pITPR1)
- NGF-induced intracellular calcium release (ITPR1; NBL cells): nearly completely
- ATP-stimulated calcium release [1]: able to inhibit Ca^2+ release

From patent US11911450B2, “Method for managing pain” (UNIVERSITY OF MIAMI, priority 2017, dated 2024)
